Values of other authors, collected in PMC3749136.

Target: EGF-R pY1092 peptide pY1092 peptide (Homo sapiens) (UniProt P00533)
Conditions: cited from earlier work

SOCS4 SH2, sequence (Q8WXH5 283-384): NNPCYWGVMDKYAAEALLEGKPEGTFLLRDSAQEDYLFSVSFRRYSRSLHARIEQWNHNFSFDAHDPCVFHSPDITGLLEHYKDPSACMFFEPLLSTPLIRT

SOCS4 SH2 (from UniProt Q8WXH5)
Kd: 500 nM
